Test [1] has as its target T1, CD122/CD132 complex on HEK-Blue IL-2 cells (UniProt P14784 27-551; P31785 23-369, limits assumed).
T1 sequence (looked up) 1: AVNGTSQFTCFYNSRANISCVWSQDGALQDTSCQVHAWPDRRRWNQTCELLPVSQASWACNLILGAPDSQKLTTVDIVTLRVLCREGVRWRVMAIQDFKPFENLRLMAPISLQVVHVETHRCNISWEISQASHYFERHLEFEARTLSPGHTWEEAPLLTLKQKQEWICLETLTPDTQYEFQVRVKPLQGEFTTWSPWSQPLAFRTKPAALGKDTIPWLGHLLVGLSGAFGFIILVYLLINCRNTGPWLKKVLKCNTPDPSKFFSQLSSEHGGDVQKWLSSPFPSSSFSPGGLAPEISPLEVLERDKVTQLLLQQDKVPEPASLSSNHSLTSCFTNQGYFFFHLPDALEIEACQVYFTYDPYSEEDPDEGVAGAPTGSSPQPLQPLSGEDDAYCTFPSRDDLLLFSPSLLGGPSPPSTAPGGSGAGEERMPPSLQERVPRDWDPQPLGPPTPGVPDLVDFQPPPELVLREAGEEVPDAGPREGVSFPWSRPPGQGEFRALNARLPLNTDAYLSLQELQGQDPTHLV
T1 sequence (looked up) 2: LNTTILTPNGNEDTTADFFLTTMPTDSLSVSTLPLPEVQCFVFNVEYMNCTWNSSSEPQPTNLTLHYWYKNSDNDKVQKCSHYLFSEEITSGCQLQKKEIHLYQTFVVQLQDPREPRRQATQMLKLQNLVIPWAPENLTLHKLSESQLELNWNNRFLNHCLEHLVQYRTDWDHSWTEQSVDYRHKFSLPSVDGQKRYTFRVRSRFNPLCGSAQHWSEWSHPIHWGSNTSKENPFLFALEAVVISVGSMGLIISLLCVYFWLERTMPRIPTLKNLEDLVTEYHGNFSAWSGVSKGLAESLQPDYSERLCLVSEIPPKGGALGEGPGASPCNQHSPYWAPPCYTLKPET
Put plainly: cell-based or functional assay.

Test [2] addresses T2, recombinant human CD132 (human, UniProt P31785 23-262, limits assumed).
T2 construct: also called IL-2Rγ
T2 sequence (looked up): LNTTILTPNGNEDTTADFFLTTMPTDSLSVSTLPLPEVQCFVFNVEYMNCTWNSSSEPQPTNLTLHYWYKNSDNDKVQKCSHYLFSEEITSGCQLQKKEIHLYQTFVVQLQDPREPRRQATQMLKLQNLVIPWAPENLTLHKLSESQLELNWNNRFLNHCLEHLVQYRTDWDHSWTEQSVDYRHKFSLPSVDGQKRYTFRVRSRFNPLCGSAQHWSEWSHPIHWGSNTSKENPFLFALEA
Put plainly: GCI (WAVEsystem). As to the method:
Binding affinity and kinetics constants of humanized CD122/CD132 FIT-Ig were determined using a label-free biosensor on WAVEsystem (Creoptix AG, Switzerland) by grating-coupled interferometry (GCI). Briefly, a PCP WAVEchip (Creoptix AG) was pre-immobilized with goat anti-human IgG Fc antibody to a density of 3830 pg/mm² by amine coupling, and used to capture humanized CD122/CD132 FIT-Ig generated from Example 3.2.1 to a density of ˜90 pg/mm², then exposed to recombinant human/cyno CD122 or CD132 serially diluted (3× dilutions from 200 nM to […] for human CD122, human CD132 and cyno CD132, respectively; and from 1000 nM to 1.37 nM for cyno CD122) in 1X HBS-EP+ buffer (Cytiva, Cat No. BR100669) by injection at 60 μL/min for 250s to assess association, followed by 1200s dissociation. After each round of association and dissociation, WAVEchip surface was regenerated by subject to pH 1.5 Glycine-HCl buffer injection at 60 μL/min for 120s. Sensorgrams were recorded at 25° C., the data were analyzed on WAVEcontrol (Creoptix AG) and double referenced by subtracting the signals from blank injections and the reference channel. A Langmuir 1:1 model was used for data fitting.

B1: huFIT2019-86b-48 (bispecific antibody, human IgG1, kappa, L234A L235A)
chain 1: not shown
chain 2: EVQLVQSGAEVKKPGASVKVSCKASGYTFTDYVISWVRQATGQGLEWMGEIYPGDGNTYYNEMFKGRVTMTRDTSISTAYMELSSLRSEDTAVYYCARGSYTYDNYAMDFWGQGTTVTVSSASTKGPSVFPLAPSSKSTSGGTAALGCLVKDYFPEPVTVSWNSGALTSGVHTFPAVLQSSGLYSLSSVVTVPSSSLGTQTYICNVNHKPSNTKVDKKVEPKSC
chain 3: not shown
Regarding B1, the “EC50 from SEAP reporter gene assay” value in test [1] stood at 0.168 nM. Besides, the binding result in test [2] is recorded as “binds”.

B2: huFIT2019-86b-50 (bispecific antibody, human IgG1, kappa, L234A L235A)
chain 1: not shown
chain 2: EVQLVQSGAEVKKPGASVKVSCKASGYTFTDYVISWVRQATGQGLEWMGEIYPGDGNTYYNEMFKGRVTMTRDTSISTAYMELSSLRSEDTAVYYCARGSYTYDNYAMDFWGQGTTVTVSSASTKGPSVFPLAPSSKSTSGGTAALGCLVKDYFPEPVTVSWNSGALTSGVHTFPAVLQSSGLYSLSSVVTVPSSSLGTQTYICNVNHKPSNTKVDKKVEPKSC
chain 3: not shown
With B2, in test [1], the “EC50 from SEAP reporter gene assay” value was found to be 0.286 nM. Moreover, in test [2], the binding result was “binds”.

B3: huFIT2019-86b-49 (bispecific antibody, human IgG1, kappa, L234A L235A)
chain 1: not shown
chain 2: EVQLVQSGAEVKKPGASVKVSCKASGYTFTDYVISWVRQATGQGLEWMGEIYPGDGNTYYNEMFKGRVTMTRDTSISTAYMELSSLRSEDTAVYYCARGSYTYDNYAMDFWGQGTTVTVSSASTKGPSVFPLAPSSKSTSGGTAALGCLVKDYFPEPVTVSWNSGALTSGVHTFPAVLQSSGLYSLSSVVTVPSSSLGTQTYICNVNHKPSNTKVDKKVEPKSC
chain 3: not shown
Turning to B3, the “EC50 from SEAP reporter gene assay” value in test [1] was 0.216 nM. For the same molecule, in test [2], the binding result is “binds”.

Source of the values: US20250002594A1 (SHANGHAI EPIMAB BIOTHERAPEUTICS, published 2025).
